{"source": "paper PMC3727329", "about": "“Combining crystallography and EPR: crystal and solution structures of the multidomain cochaperone DnaJ” (Acta Crystallographica Section D: Biological Crystallography, 2013)", "proteins": {"B1": {"name": "SeMet-DnaJ_(Δ108–114/4M), Thermus thermophilus DnaJ lacking residues 108–114 with four residues substituted by methionine (natural protein, UniProt Q56237 1-280, looked up)", "chain": "MAAKKDYYAILGVPRNATQEEIKRAYKRLARQYHPDVNKSPEAEEKFKEINEAYAVMSDPEKRRIYDTYGTTEAPPPPPPGGYDFSGFDVEDFSEFFQELFGPGLFGKGRDLRAELPLTLEEAFHGGERVVEVAGRRVSVRMPPGVREGSVIRVPGMGGQGNPPGDLLLVVRMLPHPVFRLEGQDLYATLDVPAPIAVVGGKVRAMTLEGPVEVAVPPRTQAGRKMRLKGKGFPGPAGRGDLYLEVRITIPERLTPEEEALWKKLAEAYYARA", "modifications": "selenomethionine in place of methionine", "notes": "DnaJ (type II DnaJ, Hsp40 homologue) of Thermus thermophilus with J, GF and C-terminal domains; chains A-D of the model hold residues 2-272; Cloned NcoI/NotI into pET24d; also called DnaJ_(108114/4M); source: E. coli BL21(DE3) in minimal medium with L-selenomethionine, purified (heat denaturation, Ni-NTA, Superdex 200)"}}, "biological_target": "the molecule itself", "test": "crystal structure; SeMet-DnaJ_(Δ108–114/4M), SeMet-SAD phasing, 2.9 Å; two dimers in the asymmetric unit; crystals from 14–16% PEG 6000, 0.1 M succinate/BTP pH 7.0 with adenine nucleotides", "data": [{"protein": "B1", "values": [{"measurement": "binding result", "result": "binds"}]}]}
